Source: patent EP1997885A1 (AXXAM S.p.A., dated 2008)
Numbering of substitutions follows the chain as printed. Names and notes keep the numbering of the source.

Legend:
[1] = target: recombinant (His6)-tagged DsRed2; assay: size exclusion chromatography on Superdex 200, 2 mg/mL, self-association
[2] = target: recombinant (His6)-tagged EGFP; assay: as above
[3] = target: AsGFP499(S103K), recombinant his-tagged (Anemonia sulcata); assay: as above
[4] = target: AsGFP499(S103K), recombinant his-tagged (Anemonia sulcata); assay: pseudo-native SDS-PAGE, self-association
[5] = target: the molecule itself; assay: pseudo-native SDS-PAGE, self-association
[6] = target: AsGFP499(S94T/S103K/R150K/S171N/K206R), recombinant his-tagged (Anemonia sulcata); assay: size exclusion chromatography on Superdex 200, 2 mg/mL, self-association; second peak
[7] = target: AsGFP499(S94T/S103K/R150K/S171N/K206R), recombinant his-tagged (Anemonia sulcata); assay: size exclusion chromatography on Superdex 200, 2 mg/mL, self-association; first peak
[8] = target: AsGFP499(S103K/R150E), recombinant his-tagged (Anemonia sulcata); assay: size exclusion chromatography on Superdex 200, 2 mg/mL, self-association; second peak
[9] = target: AsGFP499(S103K/R150E), recombinant his-tagged (Anemonia sulcata); assay: size exclusion chromatography on Superdex 200, 2 mg/mL, self-association; first peak

**Q.** How did the Apparent MW [kDa] [1] turn out when recombinant (His6)-tagged DsRed2 was run?
**A.** 79 kDa

**Q.** With recombinant (His6)-tagged EGFP as the molecule, how does the Apparent MW [kDa] [2] read?
**A.** 27 kDa

B1: AsGFP499(S103K), recombinant his-tagged (protein, not shown: small tags and cut ends)
chain: MYPSIKETMRVQLSMEGSVNYHAFKCTGKGEGKPYEGTQSLNITITEGGPLPFAFDILSHAFQYGIKVFAKYPKEIPDFFKQSLPGGFSWERVSTYEDGGVLKATQETSLQGDCIICKVKVLGTNFPANGPVMQKKTCGWEPSTETVIPRDGGLLLRDTPALMLADGGHLSCFMETTYKSKKEVKLPELHFHHLRMEKLNISDDWKTVEQHESVVASYSQVPSKLGHN
**Q.** B1 was tested. Which Apparent MW [kDa] [3] did it give?
**A.** 39 kDa

**Q.** What about the MW on pseudo-native SDS-PAGE [4] of the same molecule?
**A.** < 50 kDa

B2: AsGFP499(S103K/F173E) (other)
chain: B1 chain with F173E
notes: Only tested on the pseudo-native gel; reported as partly monomeric; also called AsGFP499 (S103/F173E); not shown: tag and vector-encoded residues of the bacterial expression vector
**Q.** Does B2 bind [5]?
**A.** binds

B3: AsGFP499(S94T/S103K/R150K/S171N/K206R), recombinant his-tagged (protein, not shown: small tags and cut ends)
chain: B1 chain with S94T, R150K, S171N, K206R
**Q.** With B3 as the molecule, how does the Apparent MW [kDa] [6] read?
**A.** 23 kDa

**Q.** What about the Apparent MW [kDa] [7] of the same molecule?
**A.** 39 kDa

B4: AsGFP499(S94T/S103K/T159K/F173E), recombinant his-tagged (other)
chain: B1 chain with S94T, T159K, F173E
notes: Reported as a monomer; not shown: (His6) tag and vector-encoded residues of pET28a(+)
**Q.** Does B4 bind [5]?
**A.** no binding

B5: AsGFP499(S103K/T159K/F173E), recombinant his-tagged (other)
chain: B1 chain with T159K, F173E
notes: as for B4
**Q.** Does B5 bind [5]?
**A.** no binding

B6: AsGFP499(S103K/R150E), recombinant his-tagged (protein, not shown: small tags and cut ends)
chain: B1 chain with R150E
**Q.** Which Apparent MW [kDa] [8] does the source give for B6 here?
**A.** 23 kDa

**Q.** What about the Apparent MW [kDa] [9] of the same molecule?
**A.** 39 kDa
